The text below walks through data of the DeepSol protein solubility set.

This series can be described thus: soluble on expression in E. coli; label from the status in PepcDB or PDB records.
“MNVTRKKGPLYLQIKNIIRDRILHGVYAIHTNIPSEPQLEEEFKVSKITVRNAIKELAQEGYLEKKSGKGTKVIRNTSATKLSKGKKFTEVLVEEGYKVQKKLLKAEIVHNEEGTVPFRLFGKESFRIERLYTLNDAPYIHYTHYFSAHMASTDLSDFDLQSLYDLVEDRGIHLENFRDEFAVGLAPSFVAEALGEKEGTALLKRMRYSYDEVGEVIEYSEGYYNTEMQHYVVNYDV”: the “soluble on expression in E. coli” value is listed as “not soluble”.
As for “MRWAIVRFPGANCDEDARFALEKAGIRAEFVWHTERDLRGFDGVFLPGGFSYGDYLRAGALAAKSPVMEAVRRFAEEGRYVVGVCNGFQILTEAGLLPGALLANLNLHFTCKEVGVRVERNDLPFTRLYPRGQVLRLPIAHGEGRYYADPETLARLEGEGLVVFRYAPLKDEADYNPNGSLHDIAGIVSEKGNVLGMMPHPERAVDEVLGNTDGLPFFLGLVKEVAR”, the entry is “soluble”; as for “MYIQVLGSAAGGGFPQWNCNCVNCKGYRDGTLKATARTQSSIALSDDGVHWILCNASPDIRAQLQAFAPMQPARALRDTGINAIVLLDSQIDHTTGLLSLREGCPHQVWCTDMVHQDLTTGFPLFNMLSHWNGGLQWNRIELEGSFVIDACPNLKFTPFPLRSAAPPYSPHRFDPHPGDNLGLMVEDTRTGGKLFYAPGLGQVDEKLLAMMHGADCLLVDGTLWEDDEMQRRGVGTRTGREMGHLAQNGPGGMLEVLDGFPRQRKVLIHINNTNPILDENSPERAEVLRRGVEVAFDGMSIELLEHHHHHH”, “soluble”.
For the sequence “MRVAVLGAGAWGTALAVLLASKGVPTRLWARRKAQAEALKAMRENRDYLPGVALPAYLYPTHDPEEALEGAELAVLAVPSKALRETVAGLPPAPWYVSATKGLFYGEEGVRTPAEVVEALTQRPVVALSGPNHAEEVARFLPTASVAAGPEDLARRVQALFSGPTFRVYTSRDRRGVELGGAVKNVLALAAGMVDGLRLGDNAKAALLTRGLKEMVRFGTALGGEEATFYGLAGLGDLLATAYSLHSRNRMAGESLVRGVDREALEARGVVEGLYAVKAMVAWGKEQGVELPVAEAVHRVAHEGLDPLAALKALMAREPKEE”, the “soluble on expression in E. coli” value is “soluble”.
As for “MGSSHHHHHHSSGLVPRGSHMASAVVQEVSAEAQAPAVVKNPPKLALKIDRADVNQLPRNFRMGSDKYVGVTKTGIMPTRKGMDTMNVSASSCFSEKELEAILKKVPVKPSQFYDVDLRGESHGYLNGTAVSWFANHDWGNDGRTEDIIIPLEKEQLASLKGSTVKSIYRFDDKKNVILSPVYVNYNKVRTEEEMVKQHGANYFRLTLQDHFRPDDPDVDKFLEFYKSLPKDAWLHYHCYAGMGRTTIFMVMHDILKNAKDVSFDDIIQRQKLIGIVDLSEIPDKKKNYGRKAYIERYQFVQHFYDYVKENPDLKTPYSVWAKKNKVNSWEPDYNGYIWRLDTKDRNQLPRNFRTMNSAFRTDVNVKKTGKGFTPTPTRKGLDTLYMSGSAEFSNGELQAMLPVLKQQAKGPIYIMDLRQETHGVFNGNAVSWYGLRDWGNLGKNKAEVLKDENSRLNAARGKSLIVAELDKDKMPIDPKPVKIESVMTEQQLVEKNGLHYYRIAATDHIWPSAANIDEFINFTRTMPANAWLHFHCQAGAGRTTAYMAMYDMMKNPDVSLGDILSRQYLLGGNYVAYEIAKPKPDQWKADYYHQKAHMIEKFYQYVQENHADGFKTSWSQWLAAHQDV”, the “soluble on expression in E. coli” value is reported as “soluble”.
With “MSLERKKYNFNSEWRLQIGDFPEAKQSQFDDSRWKAVTLPHAFNEDEAFKVSIEQLTDTVVWYRKHFRIPASGKKQKVFIEFEGVRQAGDFYLNGQYLGKHENGVMAAGFDLTPYIKEGDNVLAVRTDNDWMYREKSTNSKFQWNDRNFNANYGGLPKNVFLYVTDEVYQTLPLYSNLKTTGVYIYAKDIDVKGRTATIHAESEVKNDSREPRQFSYQVVLLDADGKQVKSFEGEKVTLQGGETRVVKAASKVNNLHFWSWGYGYLYTVQTILKDNKNQVFDEVSTRTGFRKTRFAEGKIWLNDRVIQMKGYAQRTSNEWPAVGLSVPAWLSDYSNGLVVKGNGNLVRWMHVTPWKQDVESCDRVGLIQAMPAGDSEKDRTGRQWDQRTELMRDAIIYNRNNPSILFYECGNKGISREHMIEMKAIRDQYDPFGGRAIGSREMLDIREAEYGGEMLYINKSEHHPMWATEYCRDEGLRKYWDEYSYPFHKEGDGPLHRNQPATDYNHNQDMLAIAMIRCWYDYWRERPGTGRRVSSGGAKIIFSDTNTHHRGEENYRRSGVTDPMRIEKDAFFAHQVMWNGWVDTEEDNTYIIGHWNYPANTVKPVYVVSTGEEVELFLNSQSLGKGKREYNFLFTFDNVAFKAGKLEAVSYNKAGKEISRYAVSTVGEPAGLKLTTIQNPEGFHADGADLALIQVEVVDKDGKRCPLDNRTIQFDLKGNAEWRGGIAQGKDNYILNTSLPVECGINRALIRSTTQAGKITLTAKAEGLPSATITLETLPVKVSNGLSTYLPQMTLKGNLDKGKTPLTPSYKDTKRDIRIVSAKAGANNETVNQSFDDNERSEWMNDGKLSTAWITYTLEKEAAIDDICIKLNGWRSRSYPLEVFAGNTMIWSGDTNKSLGYVHLNVEKPVRSKQITIRLKGNTSDQDAFGQITEVAAKAANDMELEAKANKNNANLRIIEIEFLEAIKEGHHHHHH” the entry was “soluble”.
As for “SNAMLNIVLFEPEIPPNTGNIIRLCANTGCQLHLIKPLGFTWDDKRLRRAGLDYHEFADIKHHHDYQAFLDSEKLDSTQPARLFALTTKGTPAHSAVSYQANDYLLFGPETRGLPAYILDALPAQQKIRIPMQADSRSMNLSNAVSVVVYEAWRQLGYPGALLKE”, the entry is “soluble”.
In the case of “MEGSQQTITSKQLVRMLKDASRGSKGKGSGEMKFCFLIGAGASISSGIPSGAKLAWDWLQQIKEDCDGEDFEDWKIEIKMPDQHIEERVGEFYPEIYEKRFGHAPETGYDYIRGLMEGREPSLGYLILANIMVREKHNVVITTNFDNLLEDAIRTYTKEKPFIAGHEALADYVPKRSDRPIILKLHRDLFLQPFSDQLNTDILQAAWESILGKFLSDYHLIVLGYGGNDGSLMNYLLKLKNRKPIYWCVRNTDKATSKSLWNTLSPKAKRLLKNDGYLVPIDDFDRFMYDCYAALGYKFLEGIEKIEKPKSIHEILKPNYARIESIQTQLRQLSQTEEELSKESFQSIKSFLPDSWMWILKANQEKDIDKKDKIYREGIAKYPQDANLLGDYADFLCDICHD”, the “soluble on expression in E. coli” value is given as “not soluble”.
With “MAHHHHHHMSLAREKYLKRKRELLENINLIDIGEKISNTGKNEGNSKSDNIKKESRSRDFIKNDNRTRESFKKNDRGEYIDNDRKHLKSNNYNMLSSYNNKDIKNENRDLRKSPYDHRKLNNKNEQDILSNKTKRSSTNLQYNNDYAFVNKENNVLINNSSKMVNSTNNINEYLKDLNNIDINDSLILLFYVCKLLLDMCSKVNMNQSSMNTSVTSVEMLRDMKSKNRKNIKLFKINILNNILIYLSDENVNTLTQGNPNYKDNNFEKRHEEIRIDEKCIDIEHVGINIVIKVIYINNIKKLIFKYLYLINNNFKHDGVGNINMYDGRLNKNEEQNYFTTPLMEHKNINFMNN” the entry was “not soluble”; with “SNAMNHLPEKMRPYRDLLEKSAKEYVKLNVRKGKTGRYDSKIAGDPYFPKHETYPTDENGQPMKLLAQINFSHIPQLDGYPSSGILQFYISVHDDVYGLNFDDRCEQKNFRVIYFENIVENDDELVSDFSFIGTGECDFPILSEAAVEPVKSSEWVLPTDFQFEQYTGMETMEFFGQFGEDEEDIYNELAENGFGHKIGGYASFTQHDPREYAYKEHTIMLLQIDSDDDIDSMWGDVGIANFFITPEDLRKKDFSNVLYNWDCS”, “soluble”.
With “MNNLALQSLTESIAIKYFGKAFKHEVYYNKRLRTTGGRYILSSHNIEINPKQYEMFGEKAVIDIIKHELCHYFLHLAGEGYQHRDKAFKSLSAKVGAPRFCTPTESYQDRANYKYRCIYCEQEFIRIKRVNLEKMRCGRCGGILKLLQTRKLEHHHHHH”, the “soluble on expression in E. coli” value is listed as “not soluble”.
With “MGSDKIHHHHHHMQDVTGRALVMMESATQGQQGIAMDLVQEAFIALHKSYADRSTEEWYPLFYTILNNKLQDWRRKEARRANPFSFFKKVSLDNDDEEIIDIVDEKAINPADFLDQAVTIEEIQEAIAKLPVRQQQAFMLRAWEGFDTHTTAQIMNCTEGSVKTHYHRAIQGLREYLAHLNPMGGSNES” the entry was “not soluble”; with “MGSDKIHHHHHHMLRRYRKLGEILLEKGFITREELDKALEIQKEERKPLGEVLIETGYITEDQLLEALSEQYGVPILKELPKNIPLNVVGSIPKNIIESLHVIPVEKKEDGTLVVVTDNGTNIPRIKQEIRFLTGKNPEIYLVTSRDFSVLYQTYVLGVPLELFEEPYVAIEETPEQVEEEEEEEREVEEAPIVRLVNNIVNRAIEMGASDIHIEPMKRTVRVRFRIDGILRKVLEYQKPQHNSVVARIKIMSGLDVSERRLPQDGKFYTIKGGEQYDFRVSTMPSTFGEKVVMRILKVSDANKRLEELGYSEYNLKRILSLLEKPYGIILVTGPTGSGKSTTLVAMINYLKSESVNIVTAEDPVEYTIEGVTQCQVFPEIGLTFARYLRAFLRQDPDIIMVGEIRDRETAQLAVEASLTGHLVLSTLHTNTAAGAVSRLIEMGIDPHLLGASLIGIIGQRLVRKLCDECKMPGEVRDEQVKSYFEQFFGKVPDQIYYPSEEGCPACKGMRYRGRMAIGEVLIVDEELRELISSKASETEIAKLAVKKGMRTMFQDALEKVLLGQTSIEEVFRVTTPL”, “not soluble”.
Turning to “MSLLSVKQSSINEDHNNWDFFGHFVLRSTGFPYEWMKELKMQQTFDLIFQNAKWEQVESKFNQELAIKREQLKAYFDSEDFRQAVFISNPDMYQHIDRYMKHFQSHSRPSKVKRIEKKLFTYLQRFCGKNESASFFGPLNYGQVEPNIDEYWDGSFIETKDLQKREAFLSYWAVKALAKAVAKENELAPYVPLQIPSWIVVRKEYVVLSSGKRINLPAWMMEIMHYIQETSSCLWELQNHFNHIEAGQLKASLEKLISKGLIHREWIIPSTVVHPLHRLLEQLRELPDSPAKNKWCQALDELASEVTKLANLPIVEKRRSFAHLEETFTKLTGEPSRRGKASLYADRFIYYEDAQGHIQEFRFGKPFIEDLQTKLAGSLNMSAAYGEEIWAYYQELGRNVYEDMQVEARNDEKRQLANSGIPFSSFINKLRQTYPDVPQLPKSSFSNKIEAIIREKGTEQRVVKLTSDQLNVFPSNRSFYSLPDLFLQAENIEALRNGDVQIILAKLHHHLLMHNWMTYFYQEKERLERDLVQLVQKLDHEDGTVLSGLEIMRRNKAYYDYPTTVIEYAEKPDSSKESIKLTDLIVVRNDDGHLELQEKNTSRPIELYVPLADQVHYLPFAMFSKPMLLHVPISSGKHTPRIVIDDVVYQRERWFFYTKQLVDLFHQLQGPLLLKKVEEWRQAEGIPEVVYIKGSDVRKPYWVDFKNYFSLELMQQILLENNEITIEEMLPDPHHLWLKSRKGSHSCELRMSVYKLGIKEVSEHAEGHHHHHH”, the “soluble on expression in E. coli” value is on record as “soluble”.
With “MAHHHHHHMKSMRAVTMRAFGDVDVMHISEVTGVSLSRPSDVIIRVMAAGVNRADVSQRQGHYPPPKGSSEILGMEVSGVVEKVGENVKRFKEGDRVMALLTGGGYAEMAVAHEGSVMKIPEGYSFVEAAAIPEAFLTAWQALKLHGNLQKGQHMLFHAGASGVGTAALQLAEKYFRATAIATCSSGKVEFCKRFAKFVVDRSPDASGKCFSSKVRDAVKGETVNLIVDPVVGGTYLQEDGEVLAQDGKVVLLAFMGGAKVSLDVMPFFRKRASVIFSKLRDQTDEYKEALVRSFEEEVIPYMTRREIVPVVQCTYALEEVAAAHKLMENNKSNGKVILTVGKAE” the entry was “soluble”; with “MSMSSTVIKFRAGVCEYNEDSRLCTPIPVQGEIEIKPNEEEELGFWDFEWRPTEKPVGRELDPISLILIPGETMWVPIKSSKSGRIFALVFSSNERYFFWLQEKNSGNLPLNELSAKDKEIYNKMIGVLNNSSESDEEESNDEKQKAQDVDVSMQD”, “soluble”.
